B1: Farletuzumab (antibody, INN chains, looked up, V domains shown)
VH: EVQLVESGGGVVQPGRSLRLSCSASGFTFSGYGLSWVRQAPGKGLEWVAMISSGGSYTYYADSVKGRFAISRDNAKNTLFLQMDSLRPEDTGVYFCARHGDDPAWFAYWGQGTPVTVSS
VL: DIQLTQSPSSLSASVGDRVTITCSVSSSISSNNLHWYQQKPGKAPKPWIYGTSNLASGVPSRFSGSGSGTDYTFTISSLQPEDIATYYCQQWSSYPYMYTFGQGTKVEIKR
B2: Anti-FOLR1x4 GGGGSx3 (monospecific tetravalent VHH-VHH-Fc) (antibody, part only; not given: hinge and wild-type Fc, not shown: a dimerising Fc or GST)
chain, part: QVQLVESGGGLVQPGGSLRLSCAASGFTVSNSVMAWYRQTPGNEREFVAIINSIGITNYADSVKGRFTISRDNSKNTLYLQMNSLRAEDTAVYVCNRNFDRIYWGQGTLVTVSSGGGGSGGGGSGGGGSQVQLVESGGGLVQPGGSLRLSCAASGFTVSNSVMAWYRQTPGNEREFVAIINSIGITNYADSVKGRFTISRDNSKNTLYLQMNSLRAEDTAVYVCNRNFDRIYWGQGTLVTVSS
B3: Anti-FOLR1x4 GGSx4 (monospecific tetravalent VHH-VHH-Fc) (antibody, part only; not given: hinge and wild-type Fc, not shown: a dimerising Fc or GST)
chain, part: QVQLVESGGGLVQPGGSLRLSCAASGFTVSNSVMAWYRQTPGNEREFVAIINSIGITNYADSVKGRFTISRDNSKNTLYLQMNSLRAEDTAVYVCNRNFDRIYWGQGTLVTVSSGGSGGSGGSGGSQVQLVESGGGLVQPGGSLRLSCAASGFTVSNSVMAWYRQTPGNEREFVAIINSIGITNYADSVKGRFTISRDNSKNTLYLQMNSLRAEDTAVYVCNRNFDRIYWGQGTLVTVSS
B4: Anti-FOLR1x4 GGSx3 (monospecific tetravalent VHH-VHH-Fc) (antibody, part only; not given: hinge and wild-type Fc, not shown: a dimerising Fc or GST)
chain, part: QVQLVESGGGLVQPGGSLRLSCAASGFTVSNSVMAWYRQTPGNEREFVAIINSIGITNYADSVKGRFTISRDNSKNTLYLQMNSLRAEDTAVYVCNRNFDRIYWGQGTLVTVSSGGSGGSGGSQVQLVESGGGLVQPGGSLRLSCAASGFTVSNSVMAWYRQTPGNEREFVAIINSIGITNYADSVKGRFTISRDNSKNTLYLQMNSLRAEDTAVYVCNRNFDRIYWGQGTLVTVSS

Tests used:
FOLR1 on OVCAR3 cells = FOLR1 on OVCAR3 cells (UniProt P15328); experiment: cell binding to FOLR1-positive OVCAR3 cells
FOLR1 on OVCAR3 cells, sequence (P15328 25-234): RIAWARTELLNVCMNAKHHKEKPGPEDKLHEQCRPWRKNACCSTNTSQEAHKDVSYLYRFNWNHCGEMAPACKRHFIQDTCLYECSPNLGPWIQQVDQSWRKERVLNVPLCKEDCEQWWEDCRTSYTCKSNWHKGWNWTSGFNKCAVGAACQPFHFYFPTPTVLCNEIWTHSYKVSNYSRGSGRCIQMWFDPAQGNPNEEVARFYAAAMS

[1] = molecular target: FOLR1 on cells (OVCAR3, OV-90) (UniProt P15328); experiment: flow cytometry on FOLR1 expressing OV-90 cells, Geomeans RL1-H against Conc (nM) [top panel]
FOLR1 on cells (OVCAR3, OV-90), sequence (P15328 25-234): as above

[2] = molecular target: human FOLR1 (recombinant antigen) (human) (UniProt P15328); experiment: ELISA on hFOLR1
human FOLR1 (recombinant antigen) (human), sequence (P15328 25-234 limits assumed): as the sequence (P15328 25-234) above

[3] = molecular target: human FOLR1 (recombinant antigen) (human) (UniProt P15328); experiment: BLI (Octet), construct captured on AHC biosensor, hFOLR1 as analyte

Binder	EC50 (FOLR1 on OVCAR3 cells) [nM]	EC50 (read off the curve) [1] [nM]	EC50 [2] [nM]	Kd [3] [nM]	koff [3] [s⁻¹]	kon [3] [M⁻¹ s⁻¹]
B1	0.71	2	0.12	–	–	–
B2	0.28	–	0.12	2.86	0.000953	333000
B3	0.81	–	0.14	2.85	0.000853	299000
B4	0.49	–	0.11	2.52	0.00087	345000
